Experimental findings from article PMC3903488, “Characterization of a Ginsenoside-Transforming β-glucosidase from Paenibacillus mucilaginosus and Its Application for Enhanced Production of Minor Ginsenoside F2” (PLoS ONE, 2014) are described below.

Substrate in the data set “purified protein”: O=[N+]([O-])c1ccc(O[C@@H]2O[C@H](CO)[C@@H](O)[C@H](O)[C@H]2O)cc1
Nature of the data set: purified protein. The following applies: 0.1-10.0 mM substrate, standard activity assay 50 mM sodium phosphate pH 7.5, 37 °C.

Substrate in data set [1]: CC(C)=CCC[C@](C)(O[C@@H]1O[C@H](CO[C@@H]2O[C@H](CO)[C@@H](O)[C@H](O)[C@H]2O)[C@@H](O)[C@H](O)[C@H]1O)[C@H]1CC[C@]2(C)[C@@H]1[C@H](O)C[C@@H]1[C@@]3(C)CC[C@H](O[C@@H]4O[C@H](CO)[C@@H](O)[C@H](O)[C@H]4O[C@@H]4O[C@H](CO)[C@@H](O)[C@H](O)[C@H]4O)C(C)(C)[C@@H]3CC[C@]12C
The data set can be described thus: initial velocity, non-linear regression. Format: biochemical, Paenibacillus mucilaginosus. The following applies: 0.2-5.0 mM substrate; assay buffer not given. The text has this:
(§1) initial velocity, non-linear regression on BglPm

Substrate in data set [2]: CC(C)=CCC[C@](C)(O[C@@H]1O[C@H](CO)[C@@H](O)[C@H](O)[C@H]1O)[C@H]1CC[C@]2(C)[C@@H]1[C@H](O)C[C@@H]1[C@@]3(C)CC[C@H](O[C@@H]4O[C@H](CO)[C@@H](O)[C@H](O)[C@H]4O[C@@H]4O[C@H](CO)[C@@H](O)[C@H](O)[C@H]4O)C(C)(C)[C@@H]3CC[C@]12C
Nature of the data set: initial velocity, non-linear regression. It counts as biochemical, Paenibacillus mucilaginosus. As to conditions: 0.2-5.0 mM substrate; assay buffer not given.
From the text: as §1

As usually defined, the Km is the substrate concentration at which the rate is half of its maximum. As a reminder, the Vmax is the top rate of the reaction or transport when substrate is in excess. The kcat is the number of substrate molecules converted per active site and unit of time at saturation. Broadly, the kcat/Km is the second-order rate constant that governs catalysis at low substrate concentration.

B1: BglPm (Paenibacillus mucilaginosus 3016) (protein)
chain: EYIFPQQFMFGSATAAYQVEGNNTNSDFWAEEHAEGSPYQDKSGDAVDHYRLYREDIALMASLGLKAYRFSIEWARIEPAPGQFSLSAIAHYRDVLQACYEHRLTPVVAMHHFSSPQWLMRFGGWGSEEVPERFAKYCEFVFQELGDLIPYVLTFNEVNLPVMLREVFSSIGIIPPVGIDGAAWTAPGWRASAAQLCGTTADRYVTFHMISDEPKIALLMEAHRRARQTIKRLQPNAKVGLSMALSDIQSVPGGEAWAQQKWQQYFEQYLPALEGDDFFGLQNYTREVYGPEGRVTPAADAELTQMKYEYYPEALGQVIRKVAKALTLPIFVTEHGVATDDDERRIEFIRRGLQGVHACLEEGIDVRGYLHWTTFDNFEWNAGYSMRFGLIGVDRTTQERTVKESARYLGRIASTKVL
notes: expressed in E. coli BL21(DE3)
For the protein B1, in the data set “purified protein”, the Km came out at 3240 ± 390 µM, the Vmax was 10.2 µmol/min/mg, the kcat is 8.13 s⁻¹ and the catalytic efficiency (kcat/Km) was 2560 M⁻¹ s⁻¹. Further, in data set [1], the Michaelis-Menten constant (Km) stood at 384 ± 64 µM, the Vmax came out at 0.369 µmol/min/mg, the kcat amounted to 0.458 ± 0.018 s⁻¹ and the kcat/Km is 1230 ± 250 M⁻¹ s⁻¹. Moreover, in data set [2], the Michaelis-Menten constant (Km) worked out at 352 ± 53 µM, the maximal velocity (Vmax) was determined as 0.484 µmol/min/mg, the kcat was determined as 0.601 ± 0.066 s⁻¹ and the kcat/Km was determined as 1780 ± 460 M⁻¹ s⁻¹.
